{"source": "paper PMC2757159", "about": "(Biochemistry, 2009)", "target": "the molecule itself", "assay": "SEC", "data": [{"protein": "human H46R/H48Q copper-zinc superoxide dismutase (SOD1) double mutant (enzyme) not shown", "values": [{"measurement": "stoichiometry N", "value": 2}]}]}
